Test results from US20250361297A1, “ANTI- SIGLEC-15 BINDING MOLECULES AND METHODS OF USE” (ADAPTAM THERAPEUTICS, S.L., priority 2024, published 2025).
“Also recorded” adds a separate entry of the source.

Columns and labels:
[1] = tested on: recombinant cynomolgus Siglec-15 protein; assay: ELISA binding to recombinant cynomolgus Siglec-15 protein; design: species or system cynomolgus monkey; settings: ELISA (FIG. 11B)
Method: Binding to human, cynomolgus and mouse Siglec-15 by ELISA: 96-well micro plates were coated with 50 μl of 2 μg/ml cynomolgus Siglec-15-his protein (Bonopusbio, CW70-50 ug), or 2 μg/ml mouse Siglec-15-his protein (Bonopusbio, CW71-50 ug), or 2 μg/ml human Siglec-15-his protein (Bonopusbio, CW37-50 ug) in carbonate/bicarbonate buffer (pH 9.6) overnight at 4° C. ELISA plates were washed once with wash buffer (PBS+0.1% v/v Tween-20, PBST) and then blocked with 200 μl/well blocking buffer (3% w/v non-fatty milk in PBST) 1 hour at room temperature. Plates were washed 3 times and incubated with […] serially diluted anti-Siglec-15 antibodies of the disclosure or controls (starting at 198 nM, 3-fold serial dilution in PBST with 1% w/v non-fatty milk) for 2 hours at room temperature. ELISA plates were washed 3 times again and incubated with Peroxidase Goat anti-Human IgG Fc Secondary Antibody (100 μl, 1:5000 dilution in PBST buffer, A18817 Thermo Scientific) for 1 hour at room temperature. After another 3 washes, plates were incubated with 100 μl/well TMB (N301, Thermo Scientific). The reaction was stopped 2 minutes later at room temperature with 50 μl of STOP solution (N600, Thermo Scientific), and the absorbance of each well was read on a NIVO microplate reader at 450. OD values were plotted against antibody concentration. Data was analyzed using Graphpad Prism software.

[2] = tested on: Siglec-15 positive cells; assay: Internalization assay (Zenon pHrodo iFL Green); type: cell-based
Method: Internalization assay (Zhenon pHrodo): Sufficient volumes of 4× working solution of anti-Siglec-15 antibodies (10 nM) were prepared in cell culture medium for a total of 25 μL for each well of a 96-well plate. A working solution of Zenon™ pHrodo™ iFL IgG Labeling Reagent was prepared at 30 nM and 25 μL were added to each well. The mix was incubated for 5 minutes at room temperature to allow the labeling complexes to form. 5 mL of suspension cells at 2×10^6 cells/mL in cell culture medium were prepared and 50 μL of cells were added to each well of the 96-well plate containing the mix of anti-Siglec-15 antibody and the Zenon™ labeling reagent. Cells were incubated with the labeling complex for different timepoints (1-24 hours) under standard cell culture conditions. Fluorescence was analyzed by flow cytometry.

[3] = tested on: truncated second domain (D2) of Siglec-15; assay: Flow cytometry binding to HEK 293T cells expressing only the truncated second domain (D2) of Siglec-15; design: species or system human; settings: HEK 293T cells expressing only truncated D2; flow cytometry (FIG. 2B, FIG. 17)
Chain of truncated second domain (D2) of Siglec-15 (Q6ZMC9 168-251 limits assumed): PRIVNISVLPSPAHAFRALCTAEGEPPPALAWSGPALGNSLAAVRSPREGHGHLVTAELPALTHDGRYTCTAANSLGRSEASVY
From the text: Flow cytometry was used to interrogate the binding of anti-Siglec-15 monoclonal antibodies to cells expressing only a truncated version of Siglec-15 comprising solely of the second domain (D2). This strategy was useful to identify clones that recognize epitopes outside of the canonical sialic acid binding site located in the first domain (D1).
For the ELISA, antigens were immobilized on high-binding plates, and the full-length IgG1 anti-Siglec-15 antibodies were titrated beginning at a concentration of 10 μg/ml. After washing, an anti-human IgG Fab-specific HRP-conjugated secondary antibody was applied for detection. Palivizumab was included as the negative control. Optical densities were measured to generate binding curves from which EC50 values were derived. […] Flow cytometric analysis was conducted, and fluorescence intensity was used to calculate EC50 values, providing a quantitative assessment of the antibodies' cell surface binding efficacy. […] Antibodies were titrated starting at a concentration of 10 μg/ml and detected with an anti-human Fc-specific secondary antibody to detect bound primary antibodies. The half-maximal effective concentration (EC50) was calculated for each antibody to determine its binding affinity to mouse Siglec-15. Results were analyzed and ranked based on the EC50 values. […]

[4] = tested on: osteoclast activation; assay: Osteoclast activation in vitro (CTX-I in culture medium); type: cell-based; settings: relative to baseline; control odanacatib 1 μM (FIG. 47)
[5] = tested on: osteoclast differentiation; assay: Osteoclast differentiation in vitro (TRACP 5b in culture medium); type: cell-based; settings: relative to baseline levels; culture medium at day 7 (FIG. 46)

Chain of recombinant cynomolgus Siglec-15 protein (as listed by the source): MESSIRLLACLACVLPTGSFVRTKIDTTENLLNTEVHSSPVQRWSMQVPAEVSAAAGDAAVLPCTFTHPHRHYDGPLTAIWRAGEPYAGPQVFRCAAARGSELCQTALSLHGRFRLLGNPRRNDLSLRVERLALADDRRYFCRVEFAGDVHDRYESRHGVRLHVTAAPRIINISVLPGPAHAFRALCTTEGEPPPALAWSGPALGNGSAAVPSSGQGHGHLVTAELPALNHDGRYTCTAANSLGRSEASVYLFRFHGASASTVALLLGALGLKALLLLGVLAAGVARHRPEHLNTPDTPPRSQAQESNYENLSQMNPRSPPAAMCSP

extent of binding to cynomolgus Siglec-15 relative to 5G12 [1]: higher extent than 5G12
B1: S15B1: parental mouse anti-Siglec-15 monoclonal antibody from hybridoma; VH SEQ ID NO: 18, VL SEQ ID NO: 19 (antibody, V domains shown)
VH: QVQLQQSGPELVKPGASVKISCKASGYAFSSSWMNWVKQRPGKGLEWIGRIYPGHGETNYNGKFKDKATVTADKSSSTTYMQLSSLTSEDSAVYFCARVDNSDPYYFDYWGQGTTLTVSS
VL: DIVLTQSPASLAVSLGQRATISCRASKSVSTSGYSYMHWYQQKPGQPPKLLIYLASNLESGVPARFSGSGSGTDFTLNIHPVEEEDAATYYCQHGRELPFTFGSGTKLEIK
modifications: Clone S15B1 VH; Clone S15B1 VL
percentage of cells that internalized the antibody ([2]; Zenon pHrodo iFL Green label, 24 hours at 37° C.): 100%
internalization, fold increase over isotype control ([2]; kinetics over 1, 2, 4, 16, and 24 hours): approximately 6 fold
binding to D2 of Siglec-15 [3]: displayed binding affinity for D2; also recorded: significant binding to D2
effect on osteoclast activation (CTX-I) [4]: did not significantly affect
effect on osteoclast differentiation (TRACP 5b) [5]: did not significantly affect
